Assay results taken from patent CN114106160A (ANYUAN MEDICINE SCIENCE AND TECH SHANGHAI LIMITED COMPANY, dated 2022).
Like-named read-outs stand apart in the source and are kept apart here.

How the values were obtained:
刺突S-鼠Fc融合蛋白(S-mFc) [1] = molecular target: 刺突S-鼠Fc融合蛋白(S-mFc) (SARS-CoV-2; mouse, UniProt P0DTC2 14-1213); test: flow cytometry, antibody blocks binding of S-mFc to 293T-ACE2 cells
[2] = molecular target: SARS-CoV-2 S1蛋白 (ACRO Biosystems) (SARS-CoV-2, UniProt P0DTC2 16-685); test: BLI, biotinylated SARS-CoV-2 S1 on SA sensor, antibody as analyte, 1:1 model
[3] = molecular target: T1, SARS-CoV-2 S1蛋白 (ACRO Biosystems) (SARS-CoV-2, UniProt P0DTC2 16-685); test: as above
T1 construct: domain: S1

刺突S-鼠Fc融合蛋白(S-mFc) [4] = molecular target: T2, 刺突S-鼠Fc融合蛋白(S-mFc) (SARS-CoV-2; mouse, UniProt P0DTC2 14-1213); test: flow cytometry, antibody blocks binding of S-mFc to 293T-ACE2 cells
T2 construct: domain: S蛋白全长区段

[5] = molecular target: T1, SARS-CoV-2 S1蛋白 (ACRO Biosystems)

B1: 鼠源抗体S1B-48-2 (antibody, V domains shown)
VH: EVQLQQSGPELEKPGASVKMSCKASGYTFTNYVMHWVKQKPGQGLEWIGYFNPYNDDAEYNEKFKGKATLTSDKSSSTAYMVLSSLTSEDSAVYYCACLRQETDYWGQGTTLTVSS
VL: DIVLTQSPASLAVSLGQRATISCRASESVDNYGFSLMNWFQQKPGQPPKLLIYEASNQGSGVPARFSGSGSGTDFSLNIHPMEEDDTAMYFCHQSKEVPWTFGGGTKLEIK
Q: Which IC50 (刺突S-鼠Fc融合蛋白(S-mFc) [1]) does the source give for B1 here?
A: The IC50 was 0.0108 µg/mL.

Q: And the Kd [2]?
A: Its Kd is 0.0156 nM.

Q: What about the koff [2] of the same binder?
A: Its koff is 4.27e-06 s⁻¹.

Q: And the kon [2]?
A: The kon was 273000 M⁻¹ s⁻¹.

B2: 鼠源抗体S1B-64-2 (antibody, V domains shown)
VH: EVQLQQSGPELEKPGASVKMSCKASGYTFTNYVMHWVKQKPGQGLEWIGYFNPYNDGTKYNEKFKGKATLTSDKSSSTAYMELSSLTSEDSAVYYCACLRQRADYWGQGTTLTVSS
VL: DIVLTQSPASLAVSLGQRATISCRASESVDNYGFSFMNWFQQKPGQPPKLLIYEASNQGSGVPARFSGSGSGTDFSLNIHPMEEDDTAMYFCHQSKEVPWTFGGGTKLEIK
Q: With B2 as the binder, how does the Kd [2] read?
A: Its Kd is 0.091 nM.

Q: And the koff [2]?
A: Its koff is 4.43e-05 s⁻¹.

Q: What about the kon [2] of the same binder?
A: Its kon is 487000 M⁻¹ s⁻¹.

B3: 人源化抗体hS1B-48-2 (antibody, V domains shown)
VH: EVQLVQSGAEVKKPGASVKVSCKASGYTFTNYVMHWVRQAPGKGLEWIGYFNPYNDDAEYNEKFKGKATLTSDKSTSTAYMKLSSLRSEDTAVYYCASLRQETDYWGQGTTLTVSS
VL: DIVLTQSPSSLAVSLGERATINCRASESVDNYGFSLMNWFQQKPGKPPKLLIYEASNQGSGVPARFSGSGSGTDFTLKISRLQAEDVAVYFCHQSKEVPWTFGGGTKLEIKR
Q: Which results are given for B3?
A: Kd [3]: 0.00113 nM; koff [3]: 9.81e-07 s⁻¹; kon [3]: 867000 M⁻¹ s⁻¹; IC50 (刺突S-鼠Fc融合蛋白(S-mFc) [4]): 0.00582 µg/mL; EC50 [5]: 0.0197 µg/mL
